Experimental data from doi:10.1101/2019.12.12.874594.

B1: zebrafish U8-5 snoRNA, mature (structured_RNA)
RNA: GCAUCAGUGAGGUUUAUCCUUGCCUGUUGUCUUAGAAUUAAGACUUCAGCACAUGAUGAUUGGAUUCUAUGAAUACAUGAUUAUACUCUGUGUUCAUAUAGGGCUUGUCACCCAUUUAUGAAUCCUGUCUGAU
B2: zebrafish U8-4 snoRNA, mature (structured_RNA)
RNA: GUAUCAGUGAGGUUUAUCCUUACCUGUUGUCUUAGAAAUAAGACUGCAGUAUAUGAUGAUUGGAUUCUAUGAAUAUGUGACUAUGUUUGUACUGUAUUUGUACAUGACUUGCAACCUCUUUAUAAAUCCUAUCUGAU
B3: zebrafish U8-2 snoRNA, mature (structured_RNA)
RNA: ACAUCAGUGAGGUUUGUCCUACCUGUUUUAGAAAUAAGACUUCAGCACAUGAUGAUUGGAUUCUAUGAAUAUGUGAUUAUAUUCUGUAUUCGUAUAGGGUUCACAACUCUGGAUCCUAUGUGAU
B4: zebrafish U8-1 snoRNA, mature (structured_RNA)
RNA: GCAUCAGUGAGGUUUAUCCUUACCUGUUGUCUUAGAAAUAAGACUACAGCACAUGAUGAUUGGAUUCUAUGAAUGCGUGAUUAUAUUCUGUAUUCUUAAAGGGUUUGCAACACCUUUAUGAAUCCUGUCUGAU

The binders below were run against T1, 15.5K (His-15.5K) (human, UniProt P55769 1-128) (assay: EMSA).
T1 sequence: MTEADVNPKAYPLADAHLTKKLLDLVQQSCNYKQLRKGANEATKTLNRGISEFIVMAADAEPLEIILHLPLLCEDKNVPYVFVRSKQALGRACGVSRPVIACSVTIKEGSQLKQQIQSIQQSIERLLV

Binding result, binds:
B1
B2
B3
B4
